# Data reported in the DeepSol protein solubility set.
# Assay: soluble on expression in E. coli; label from the status in PepcDB or PDB records
row,Sequence,soluble on expression in E. coli
1,MGSDKIHHHHHHMQQSTPYLSFRGIGKTFPGVKALTDISFDCYAGQVHALMGENGAGKSTLLKILSGNYAPTTGSVVINGQEMSFSDTTAALNAGVAIIYQELHLVPEMTVAENIYLGQLPHKGGIVNRSLLNYEAGLQLKHLGMDIDPDTPLKYLSIGQWQMVEIAKALARNAKIIAFDEPTSSLSAREIDNLFRVIRELRKEGRVILYVSHRMEEIFALSDAITVFKDGRYVKTFTDMQQVDHDALVQAMVGRDIGDIYGWQPRSYGEERLRLDAVKAPGVRTPISLAVRSGEIVGLFGLVGAGRSELMKGMFGGTQITAGQVYIDQQPIDIRKPSHAIAAGMMLCPEDRKAEGIIPVHSVRDNINISARRKHVLGGCVINNGWEENNADHHIRSLNIKTPGAEQLIMNLSGGNQQKAILGRWLSEEMKVILLDEPTRGIDVGAKHEIYNVIYALAAQGVAVLFASSDLPEVLGVADRIVVMREGEIAGELLHEQADERQALSLAMPKVSQAVA,not soluble
2,MGSDKIHHHHHHMQTPSYFTPASFDFLTKLEHNNNREWFKANQAEYELQVRTPALHFIEAMSGSVVDLSPRLTAVAKKVGGSLMRPQRDSRFSKDKTPYKLNVGIQFRHFQAKDVHAPGLYLHLANDGCFIAAGIWHPESKALNAIRHCIDENPKGYQKAIANLTAAGFELSGDSLSRPPRGFDKSHPLIDELKRKDFIAIKDISLEQVCQLDLVDFCAQQYQYTSALMYYLCFALDLDF,not soluble
3,MGSDKIHHHHHHMQVNRLFQIIYILLEKNSVTARELAEKIEVSKRTIYRDIETLSTAGIPVYMTKGKGGGISILPNFILNKAILTEEEKSEIISSIRAVNAVNFSDSEAEKVLIKLNSILGENDTDWIEVDFSNWGNAEKEKETFNNLKTAILSKKVVKFDYSSAKGENISRKVCPLKLCFKGQSWYMYGYCGIRNDYRFFKLRRIKDLYVSEESFNIKAPKKIMKEDNVFYDEFITLKMKISSKMAYRIYDEFEDFKKLDDGSFIVTAEYPKGEWLFSYISSFGEECEVLAPQEIREEIKNKIEKMLLNYS,not soluble
4,MGSDKIHHHHHHMQVPKVTLNNGVEMPILGYGVFQIPPEKTEECVYEAIKVGYRLIDTAASYMNEEGVGRAIKRAIDEGIVRREELFVTTKLWVSDVGYESTKKAFEKSLKKLQLEYIDLYLIHQPFGDVHCAWKAMEEMYKDGLVRAIGVSNFYPDRLMDLMVHHEIVPAVNQIEIHPFYQRQEEIEFMRNYNIQPEAWGPFAEGRKNIFQNGVLRSIAEKYGKTVAQVILRWLTQKGIVAIPKTVRRERMKENISIFDFELTQEDMEKIATLDEGQSAFFSHRDPEVVKWICSLKR,soluble
5,MGSDKIHHHHHHMRAFEKIPAFQQWQKVEAIHRGWSTDLKFKVTKNQETFLLRIFQQEELLAKQQEYQFIKKVAALGFPSSKPFLCAPIPESEQGYMLLTYLEGEDLSDVLPALSPKRQLNLGVEAGRYLNKIHKLLLPERISQREIAQNLYEKKQSQLNKYKESQFCMPYQQPIISYLEKQLPLLQQRPVVYQHGDFHVGNFIYLPTRQVGVIDFNRWDFGDPYEEFYKLQFFSRNVSPLFAYGQLQGYFAGKVPTLFWQFQKLYTFHAGLYSLVWALSFGEKEIRTMEQQYQQLLEDYNCGELLVPKWFSTIQRKGLRF,not soluble
6,MGSDKIHHHHHHMRAYDVILKKRNGEKLSREEIEFMVGGYVKGEIPDYQMAAFLMAVYFRHLDEEETYYFTETMMRSGEVLDLSEIPGTKVDKHSTGGVGDKTTLVVAPLVASAGVPVAKMSGRALGHTGGTIDKLESIPGFRTELSLEEFIKNVKKYGIAIVGQTGNLVPADKKIYALRDATATVDEISLIASSIMSKKLAGGSDAFVLDVKFGTGAFMKGFEDAKKLAFLMLRIAQQHGKKAVAVLSNMDQPLGKAVGNSLEVIEAIETLKGNGPEDLKELSLTLGALMLELAGVADFEEGKKILQEKLETGEALDKFRLLVKAQGGNERVVDDPWRVLPVAEQVVEFSAAREGFVSKIDAEKVGIASMMLGAGRKKKEDRIDHSVGIIVEKKLGDSVKKGEAIARLFVSDRSDVESALKLLKEAYVISDSPSEPPRVVEEVIK,not soluble
7,MGSDKIHHHHHHMRDNTHSLEGVARLLLRSEAVASSRIEGIAPNSDKVAMAILARESDSEIRGFKESATAVARNVAILDTINADLAYKDELVLDDIVAMQTALVHAQFETIHPFPDGNGRVGRAMIHALLQRRGLTDAAVLPVSMVLATLGDRYVDGLTKFREGDVLAWISFFVEAAQVATTKAAELADSVAALEAEWMDKVNHHRTAQEASCHAFGHGAHREVRTGDFIDKHGPRCSRFTHRRWHST,not soluble
